Measurements: patent US12692294B2, “Engineered NRG-1 variants with improved selectivity toward ErbB4 but not against ErbB3” (Amgen Inc., priority 2021, dated 2026)
Where “and” joins values, the source holds several entries; their conditions need not be identical. Identical values can stand only once.

Columns and labels:
ErbB3 = target: T1, ErbB3 (Rattus norvegicus, UniProt Q62799); test: In vitro phosphorylation of Akt in rat Schwann cells; assay type: cell-based; details: Akt (Serine 473) phosphorylation, 15 minutes treatment, read-out: Schwann cells (SC) (ErbB3) Avg EC50
T1 construct: forming the ErbB2/ErbB4 complex in cardiomyocytes and the ErbB2/ErbB3 complex in Schwann cells; endogenous in cells; host or cells: rat Schwann cells
Description: (§1) In Vitro Phosphorylation of Akt in Neonatal Rat Cardiomyocytes and Rat Schwann Cells by Neuregulin Variants
(§2) Specificity of neuregulin variants towards cardiomyocytes (ErbB4) versus Schwann cells (ErbB3) was tested by measuring Akt activity generated by formation of the ErbB2/ErbB4 and ErbB2/ErbB3 complexes. Upon activation by neuregulin, the ErbB4 and ErbB3 receptors dimerize preferentially with the ErbB2 co-receptor, forming the ErbB2/ErbB4 complex in cardiomyocytes and the ErbB2/ErbB3 complex in Schwann cells, both of which signal through the Akt pathway. Neonatal rat cardiomyocytes were isolated from hearts of Sprague Dawley rat pups at 0 to 4 days old according to manufacturer's protocol using the Neomyt kit and plated on Surecoat plates in NS media containing serum (all from Cellultron Life Technologies, Baltimore, MD). Rat Schwann cells were plated in Poly-D-Lysine coated plates with Dulbecco's modified Eagle's media (DMEM) supplemented with fetal bovine serum (Thermo Fisher) and forskolin (Millipore Sigma).
(§3) After a 24-hour incubation in a humidified incubator maintained at 37° C. and 5% CO2, cardiomyocytes and Schwann cells were washed with serum free media and incubated an additional 16 hours in DMEM supplemented with bovine serum albumin (Sigma). Both cell lines were then treated with titrations of the neuregulin variant molecules for 15 minutes, upon which cells were lysed in lysis buffer (Meso Scale Discovery (MSD)). For detection of Akt phosphorylation, lysates were added to the Multi-Spot 96-Well 4-Spot Phospho (Serine 473)/Total Akt plates (MSD), incubated according to the manufacturer's protocol and read in the SECTOR Imager 6000 (MSD). For both cell assays, the percent phosphorylation of Akt was calculated by multiplying the phospho Akt signal by 2, then dividing by the phospho Akt signal added to the total Akt signal and then multiplying by 100. The phosphorylation of Akt data points were fitted using a log (agonist) versus response, variable slope (4 parameters) analysis in GraphPad Prism to generate EC50 curves. The CM % agonism reflect the top value of the data points.

ErbB4 = target: T2, ErbB4 (Rattus norvegicus, UniProt Q62956); test: In vitro phosphorylation of Akt in neonatal rat cardiomyocytes; assay type: cell-based; details: for EC50: Akt (Serine 473) phosphorylation, neonatal rat cardiomyocytes, 15 minutes treatment, read-out: Cardiomyocyte (CM) (ErbB4) Avg EC50; for Selectivity SC/CM: ratio of EC50s Schwann cells/cardiomyocytes; for CM % Agonism AVG: top value of the Akt phosphorylation data points in cardiomyocytes, wild-type control 100
T2 construct: forming the ErbB2/ErbB4 complex in cardiomyocytes and the ErbB2/ErbB3 complex in Schwann cells; endogenous in cells; host or cells: primary neonatal rat cardiomyocytes (Sprague Dawley pups, 0 to 4 days old)
Description: as §1, §2, §3

T2 sequence (Q62956 26-1308): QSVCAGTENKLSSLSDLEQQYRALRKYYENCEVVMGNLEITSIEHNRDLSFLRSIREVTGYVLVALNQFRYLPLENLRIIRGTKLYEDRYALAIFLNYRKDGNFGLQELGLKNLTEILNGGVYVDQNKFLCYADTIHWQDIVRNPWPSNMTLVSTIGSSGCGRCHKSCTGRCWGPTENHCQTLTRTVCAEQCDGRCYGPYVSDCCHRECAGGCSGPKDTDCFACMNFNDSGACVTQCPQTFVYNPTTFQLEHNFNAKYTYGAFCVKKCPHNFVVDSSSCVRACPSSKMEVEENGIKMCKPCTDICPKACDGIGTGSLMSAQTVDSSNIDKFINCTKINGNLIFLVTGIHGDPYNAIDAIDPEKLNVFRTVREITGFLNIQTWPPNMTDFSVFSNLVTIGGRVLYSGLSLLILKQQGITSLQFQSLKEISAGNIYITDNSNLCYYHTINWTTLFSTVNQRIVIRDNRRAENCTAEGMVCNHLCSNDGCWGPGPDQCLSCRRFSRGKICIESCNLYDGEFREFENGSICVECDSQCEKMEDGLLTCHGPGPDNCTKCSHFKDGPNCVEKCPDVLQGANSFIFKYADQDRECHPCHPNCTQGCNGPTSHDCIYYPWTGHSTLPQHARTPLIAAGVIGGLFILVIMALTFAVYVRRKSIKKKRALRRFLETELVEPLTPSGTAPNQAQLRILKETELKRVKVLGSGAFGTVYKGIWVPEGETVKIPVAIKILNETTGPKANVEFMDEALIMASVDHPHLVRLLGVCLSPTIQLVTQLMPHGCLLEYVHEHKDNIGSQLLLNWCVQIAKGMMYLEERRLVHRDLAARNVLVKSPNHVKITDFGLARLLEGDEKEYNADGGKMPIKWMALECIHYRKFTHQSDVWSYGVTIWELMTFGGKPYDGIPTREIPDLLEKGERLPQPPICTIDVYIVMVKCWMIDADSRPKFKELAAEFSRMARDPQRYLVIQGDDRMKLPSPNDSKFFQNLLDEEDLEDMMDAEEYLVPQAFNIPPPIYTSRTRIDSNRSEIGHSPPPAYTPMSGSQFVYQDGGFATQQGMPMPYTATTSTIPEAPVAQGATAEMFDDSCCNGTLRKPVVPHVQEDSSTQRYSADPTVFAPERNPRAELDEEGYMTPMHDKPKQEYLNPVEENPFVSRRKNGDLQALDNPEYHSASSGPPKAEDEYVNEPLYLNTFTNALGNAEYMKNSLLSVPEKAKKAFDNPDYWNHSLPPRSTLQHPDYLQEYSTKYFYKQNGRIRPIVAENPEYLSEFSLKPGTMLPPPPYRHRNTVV
T2 sequence (P06494 23-1257 partner): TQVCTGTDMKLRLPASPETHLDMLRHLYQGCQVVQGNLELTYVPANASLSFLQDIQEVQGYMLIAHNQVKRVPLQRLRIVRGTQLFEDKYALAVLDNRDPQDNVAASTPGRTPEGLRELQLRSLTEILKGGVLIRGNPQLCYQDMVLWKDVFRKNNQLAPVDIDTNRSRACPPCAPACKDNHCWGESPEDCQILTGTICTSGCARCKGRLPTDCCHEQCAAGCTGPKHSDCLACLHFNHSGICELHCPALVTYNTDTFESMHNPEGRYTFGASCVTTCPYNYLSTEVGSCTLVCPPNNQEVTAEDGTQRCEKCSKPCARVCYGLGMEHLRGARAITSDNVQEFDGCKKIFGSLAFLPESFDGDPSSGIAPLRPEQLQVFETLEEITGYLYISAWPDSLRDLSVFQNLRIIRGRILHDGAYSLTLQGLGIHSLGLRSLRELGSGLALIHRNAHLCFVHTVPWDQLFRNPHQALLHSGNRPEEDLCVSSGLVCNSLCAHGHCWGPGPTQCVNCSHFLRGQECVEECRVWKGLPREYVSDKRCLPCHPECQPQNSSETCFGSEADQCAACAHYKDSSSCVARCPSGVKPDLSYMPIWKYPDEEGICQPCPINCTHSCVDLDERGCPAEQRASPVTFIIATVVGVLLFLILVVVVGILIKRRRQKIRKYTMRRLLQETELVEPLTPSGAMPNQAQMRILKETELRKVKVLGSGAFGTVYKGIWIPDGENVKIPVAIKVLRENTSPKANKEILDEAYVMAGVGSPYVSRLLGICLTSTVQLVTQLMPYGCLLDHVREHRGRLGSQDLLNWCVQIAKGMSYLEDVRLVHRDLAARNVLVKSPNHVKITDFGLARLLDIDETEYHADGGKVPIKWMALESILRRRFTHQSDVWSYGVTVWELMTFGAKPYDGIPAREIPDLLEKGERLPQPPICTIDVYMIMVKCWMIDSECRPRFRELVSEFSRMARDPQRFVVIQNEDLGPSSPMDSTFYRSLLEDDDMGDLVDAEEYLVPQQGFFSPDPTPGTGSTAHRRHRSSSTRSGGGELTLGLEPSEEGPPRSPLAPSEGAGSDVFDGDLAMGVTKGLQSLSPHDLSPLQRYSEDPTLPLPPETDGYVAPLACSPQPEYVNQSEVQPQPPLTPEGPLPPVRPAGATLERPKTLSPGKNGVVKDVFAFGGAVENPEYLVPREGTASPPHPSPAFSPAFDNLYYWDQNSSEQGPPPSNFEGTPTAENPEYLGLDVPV
T1 sequence (Q62799 20-1339): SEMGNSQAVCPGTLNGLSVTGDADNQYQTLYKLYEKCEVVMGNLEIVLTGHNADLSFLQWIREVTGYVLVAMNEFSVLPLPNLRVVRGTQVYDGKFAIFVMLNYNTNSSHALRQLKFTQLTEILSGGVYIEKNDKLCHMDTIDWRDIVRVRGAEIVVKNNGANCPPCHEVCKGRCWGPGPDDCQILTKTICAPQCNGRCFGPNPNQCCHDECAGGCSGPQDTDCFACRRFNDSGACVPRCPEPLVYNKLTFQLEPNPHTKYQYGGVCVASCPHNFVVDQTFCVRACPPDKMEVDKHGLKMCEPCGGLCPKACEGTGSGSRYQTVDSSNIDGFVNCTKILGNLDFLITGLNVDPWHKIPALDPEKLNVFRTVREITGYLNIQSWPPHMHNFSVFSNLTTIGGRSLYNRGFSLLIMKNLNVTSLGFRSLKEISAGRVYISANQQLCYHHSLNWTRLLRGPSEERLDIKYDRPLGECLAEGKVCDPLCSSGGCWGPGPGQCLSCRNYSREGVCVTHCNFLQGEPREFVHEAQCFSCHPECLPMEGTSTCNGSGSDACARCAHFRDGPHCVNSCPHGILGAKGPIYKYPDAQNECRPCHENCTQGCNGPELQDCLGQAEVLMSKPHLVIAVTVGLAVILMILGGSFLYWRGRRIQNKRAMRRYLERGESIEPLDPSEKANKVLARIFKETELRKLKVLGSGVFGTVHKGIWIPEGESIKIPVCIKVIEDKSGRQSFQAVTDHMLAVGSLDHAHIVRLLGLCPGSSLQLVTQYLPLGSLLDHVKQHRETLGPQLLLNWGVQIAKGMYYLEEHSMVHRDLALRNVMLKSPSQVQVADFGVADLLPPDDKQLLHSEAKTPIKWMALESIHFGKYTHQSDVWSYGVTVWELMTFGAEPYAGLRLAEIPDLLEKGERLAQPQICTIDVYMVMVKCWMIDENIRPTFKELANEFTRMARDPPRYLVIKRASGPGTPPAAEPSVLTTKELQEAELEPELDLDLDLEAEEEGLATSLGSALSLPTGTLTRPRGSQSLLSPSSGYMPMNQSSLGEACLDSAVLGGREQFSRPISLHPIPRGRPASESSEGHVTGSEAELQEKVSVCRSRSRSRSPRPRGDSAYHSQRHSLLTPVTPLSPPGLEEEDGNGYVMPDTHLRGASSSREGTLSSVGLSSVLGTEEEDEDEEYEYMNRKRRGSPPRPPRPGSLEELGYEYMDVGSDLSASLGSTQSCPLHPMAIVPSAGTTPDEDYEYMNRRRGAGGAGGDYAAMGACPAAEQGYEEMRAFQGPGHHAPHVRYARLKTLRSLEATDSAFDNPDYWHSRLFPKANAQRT
T1 sequence (P06494 23-1257 partner): as the sequence (P06494 23-1257 partner) above

“huNRG1(S177-Q237)(wt)::3x(G4Q)::huFcSEFL2 (Pb): Fc fusion of wild-type NRG1 fragment S177-Q237 [reference compound]” was tested, and the EC50 (ErbB3) was 0.07 nM, the EC50 (ErbB4) was 0.21 nM and the “Selectivity SC/CM” value (ErbB4) was 0.3.
“huNRG1(S177-F229)(NRGE1D) (E47K_D48L_F49D_M50I) huIgG1z SELF2 Fc: Fc fusion of NRG1 variant SEQ ID NO:127” was tested, and the EC50 (ErbB3) was 9.33 nM, the EC50 (ErbB4) was 0.15 nM and the “Selectivity SC/CM” value (ErbB4) was 62.2. For the same substance, the “CM % Agonism AVG” value (ErbB4) was 88.5%.
In the case of “huNRG1(S177-F229)(wt)::3x(G4Q)::huFcSEFL2 (Pb): Fc fusion of wild-type NRG1 fragment S177-F229 [reference compound]”, the EC50 (ErbB4) is reported as 0.34 nM and the “Selectivity SC/CM” value (ErbB4) is reported as 0.3.
“huNRG1(S177-Q237)(wt)::GG::huFcSEFL2 (Pb): Fc fusion of wild-type NRG1 fragment S177-Q237 [reference compound]” was tested, and the EC50 (ErbB3) was 0.112 nM and 0.15 nM, the “Selectivity SC/CM” value (ErbB4) was 0.4 and 0.3 and the “CM % Agonism AVG” value (ErbB4) was “Full”.
In the case of “huNRG1(S177-F229)(NRGE1D) (E47S_D48S_F49E_M50L) huIgG1z SELF2 Fc: Fc fusion of NRG1 variant SEQ ID NO:128”, the EC50 (ErbB3) is reported as 10000 nM, the EC50 (ErbB4) is reported as 0.37 nM and the “Selectivity SC/CM” value (ErbB4) is reported as over 10000. The “CM % Agonism AVG” value (ErbB4) was 86.3%.
In the case of “huNRG1(S177-F229)(NRGE1C) (E47S_D48T_F49R_M50V) huIgG1z SELF2 Fc: Fc fusion of NRG1 variant SEQ ID NO:123”, the EC50 (ErbB3) is reported as 10000 nM, the EC50 (ErbB4) is reported as 0.19 nM and the “Selectivity SC/CM” value (ErbB4) is reported as over 10000. For the same substance, the “CM % Agonism AVG” value (ErbB4) was 76%.
“huNRG1(S177-F229)(NRGE1D) (E47T_D48S_F49L_M50L) hnIgG1z SELF2 Fc: Fc fusion of NRG1 variant SEQ ID NO:129” was tested, and the EC50 (ErbB3) was 10000 nM, the EC50 (ErbB4) was 0.39 nM and the “Selectivity SC/CM” value (ErbB4) was over 10000. For the same substance, the “CM % Agonism AVG” value (ErbB4) was 79.5%.
“huNRG1(S177-S228)(wt)((G4E)2:G4)::huFcSEFL2 (Pb): Fc fusion of wild-type NRG1 fragment S177-S228 [reference compound]” was tested, and the EC50 (ErbB3) was 0.0222 nM, the EC50 (ErbB4) was 0.084 nM and the “Selectivity SC/CM” value (ErbB4) was 0.2643. The “CM % Agonism AVG” value (ErbB4) was 92.6%.
